Reference: patent US20220213181A1 (Novartis, published 2022)
Several values for one entry are separate records, joined by “and”; a condition that tells them apart may be missing. Identical values can stand only once. One block for each binder: values may come before it.

Experiments:
[1] = target: T1, Human ANGPTL4(26-161)-FLAG-His6-Avi (human, biotin on the C-terminal Avi tag (BirA) where the protein is immobilised); experiment: Octet (ForteBio) kinetics, biotinylated antigen on streptavidin sensor, IgG in solution
T1 construct: also called human ANGPTL4 N-terminal coiled coil domain; hANGPTL4-CCD
T1 chain: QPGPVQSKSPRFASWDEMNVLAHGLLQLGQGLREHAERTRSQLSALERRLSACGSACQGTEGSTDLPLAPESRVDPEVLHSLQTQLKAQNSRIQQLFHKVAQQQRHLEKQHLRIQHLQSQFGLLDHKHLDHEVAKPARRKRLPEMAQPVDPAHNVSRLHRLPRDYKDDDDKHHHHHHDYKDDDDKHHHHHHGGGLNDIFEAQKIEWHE

[2] = target: T2, Cynomolgus monkey ANGPTL4(26-406)-FLAG-His6-Avi (cynomolgus monkey, biotin on the C-terminal Avi tag (BirA) where the protein is immobilised); experiment: as above
T2 construct: also called Cyno ANGPTL4 (26-406)
T2 chain: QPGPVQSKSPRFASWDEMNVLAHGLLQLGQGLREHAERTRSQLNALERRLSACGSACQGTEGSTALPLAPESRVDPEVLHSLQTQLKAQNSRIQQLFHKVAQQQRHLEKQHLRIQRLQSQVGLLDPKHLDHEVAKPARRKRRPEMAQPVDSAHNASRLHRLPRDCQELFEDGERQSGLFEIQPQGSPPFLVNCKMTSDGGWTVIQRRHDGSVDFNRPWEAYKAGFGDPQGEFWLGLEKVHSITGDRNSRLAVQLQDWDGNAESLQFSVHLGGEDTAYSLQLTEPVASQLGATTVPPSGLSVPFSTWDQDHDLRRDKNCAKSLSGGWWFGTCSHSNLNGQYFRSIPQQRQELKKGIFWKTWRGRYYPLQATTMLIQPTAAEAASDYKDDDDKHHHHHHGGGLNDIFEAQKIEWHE

[3] = target: T3, Mouse ANGPTL4(26-410)-FLAG-His6-Avi (mouse, UniProt Q9Z1P8 24-410, biotin on the C-terminal Avi tag (BirA) where the protein is immobilised); experiment: as above
T3 sequence: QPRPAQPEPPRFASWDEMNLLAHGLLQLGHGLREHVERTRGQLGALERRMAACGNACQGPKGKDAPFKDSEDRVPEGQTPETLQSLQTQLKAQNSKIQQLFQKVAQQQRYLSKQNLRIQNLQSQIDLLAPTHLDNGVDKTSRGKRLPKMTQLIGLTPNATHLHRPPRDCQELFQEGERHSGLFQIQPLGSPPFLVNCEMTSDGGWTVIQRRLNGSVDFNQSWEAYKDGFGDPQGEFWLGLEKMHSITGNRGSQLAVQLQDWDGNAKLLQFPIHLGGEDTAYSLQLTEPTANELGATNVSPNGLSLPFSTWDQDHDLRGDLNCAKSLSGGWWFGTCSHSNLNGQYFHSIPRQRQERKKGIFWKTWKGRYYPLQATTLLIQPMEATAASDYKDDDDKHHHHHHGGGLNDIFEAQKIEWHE

[4] = target: T3, Mouse ANGPTL4(26-410)-FLAG-His6-Avi; experiment: Octet (ForteBio) kinetics; average KD of the runs; Octet kinetics; average KD of the two mouse runs
[5] = target: T3, Mouse ANGPTL4(26-410)-FLAG-His6-Avi; experiment: Octet (ForteBio) kinetics, biotinylated antigen on streptavidin sensor, IgG in solution; Octet kinetics, mouse ANGPTL4 on the sensor, antibody up to 25 nM; run 1
[6] = target: T4, Human ANGPTL4(26-406)-FLAG-His6-Avi (human, UniProt Q9BY76 24-406, biotin on the C-terminal Avi tag (BirA) where the protein is immobilised); experiment: Octet (ForteBio) kinetics, biotinylated antigen on streptavidin sensor, IgG in solution; upper limit by the footnote
T4 construct: the text calls it 20 amino acids), then QP, ANGPTL4 26-406 and FLAG-His6-Avi; the signal peptide is left out here; also called full length human ANGPTL4; hANGPTL4
T4 sequence: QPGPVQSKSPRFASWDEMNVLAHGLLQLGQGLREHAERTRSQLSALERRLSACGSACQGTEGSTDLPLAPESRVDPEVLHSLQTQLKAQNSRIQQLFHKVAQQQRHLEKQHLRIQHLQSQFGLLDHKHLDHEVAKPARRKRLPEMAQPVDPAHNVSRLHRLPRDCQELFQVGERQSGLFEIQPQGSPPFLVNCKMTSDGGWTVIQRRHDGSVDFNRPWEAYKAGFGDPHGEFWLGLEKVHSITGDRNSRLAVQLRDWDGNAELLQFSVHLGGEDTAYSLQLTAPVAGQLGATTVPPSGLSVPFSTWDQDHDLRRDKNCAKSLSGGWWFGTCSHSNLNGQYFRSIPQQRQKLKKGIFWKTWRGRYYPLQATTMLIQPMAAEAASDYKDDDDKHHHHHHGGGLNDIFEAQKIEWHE
Procedure: Dissociation constants (KD) were determined for selected antibodies of the invention by using an Octet (ForteBio) kinetic binding assay. ForteBio 10× Kinetics Buffer (ForteBio, catalog number 18-5032) was diluted 10-fold with DPBS (Life Technologies, catalog number 14190-136), and the resulting solution was added (0.2 ml per well) to a 96-well plate (Greiner, catalog number 65520). Streptavidin sensors (ForteBio, catalog number 18-5020) were immersed in the solution and equilibrated for at least 10 min at room temperature. In a second 96-well plate (Greiner, catalog number 65520), sensors were washed in 1× Kinetics buffer, and then immersed in 200 ul of 25 nM biotinylated human ANGPTL4 or a biotinylated reference protein (for background subtraction) for 1000 sec at […] room temperature. […] The sensors were then transferred to a well containing 200 μl 1× Kinetics buffer, and antibody dissociation was monitored for 1200 seconds. Background-corrected association and dissociation curves were globally fitted by Octet Software (ForteBio) to generate association (kₐ) and dissociation (kd) rate constants, which in turn were used to calculate equilibrium dissociation constants (KD).

Kd [1]: ≤ 0.023 nM and 0.052 nM | koff [1]: 9.2e-06 s⁻¹ | kon [1]: 220000 M⁻¹ s⁻¹ and 180000 M⁻¹ s⁻¹ | Kd [2]: 0.015 nM and ≤ 0.014 nM | koff [2]: 5.4e-06 s⁻¹ | kon [2]: 360000 M⁻¹ s⁻¹ and 370000 M⁻¹ s⁻¹ | Kd [3]: 4.15 nM | Kd [4]: 6.2 nM | Kd [5]: 8.25 nM | koff [5]: 0.0029 s⁻¹ | kon [5]: 360000 M⁻¹ s⁻¹
B1: NEG276-LALA (antibody, human IgG1, kappa, L234A L235A)
heavy: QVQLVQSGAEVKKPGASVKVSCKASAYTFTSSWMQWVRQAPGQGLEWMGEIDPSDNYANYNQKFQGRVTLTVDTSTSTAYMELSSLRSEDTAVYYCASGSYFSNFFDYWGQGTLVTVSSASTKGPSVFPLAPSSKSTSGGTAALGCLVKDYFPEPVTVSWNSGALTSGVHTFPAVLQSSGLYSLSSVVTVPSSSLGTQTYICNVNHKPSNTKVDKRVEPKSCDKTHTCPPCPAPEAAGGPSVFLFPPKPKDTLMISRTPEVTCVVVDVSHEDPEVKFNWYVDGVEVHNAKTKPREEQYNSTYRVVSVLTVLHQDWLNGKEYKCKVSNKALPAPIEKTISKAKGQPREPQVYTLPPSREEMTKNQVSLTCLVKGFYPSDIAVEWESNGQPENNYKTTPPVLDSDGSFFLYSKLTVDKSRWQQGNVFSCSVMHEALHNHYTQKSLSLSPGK
light: EIVMTQSPATLSVSPGERATLSCKASQDIGSNLNWLQQKPGQAPRRLIYAVSNRGPGIPARFSGSRSGSEYTLTISSLQSEDFAVYYCLQYASSPWTFGQGTKVEIKRTVAAPSVFIFPPSDEQLKSGTASVVCLLNNFYPREAKVQWKVDNALQSGNSQESVTEQDSKDSTYSLSSTLTLSKADYEKHKVYACEVTHQGLSSPVTKSFNRGEC

Kd [6]: ≤ 0.017 nM
B2: NEG278 (antibody, human IgG1, kappa, V domains shown)
VH: QVQLVQSGAEVKKPGASVKVSCKASAYTFTSSWMQWVRQAPGQGLEWMGEIDPSDNYANYNQKFQGRVTLTVDTSTSTAYMELSSLRSEDTAVYYCASGSYFSNFFDYWGQGTLVTVSS
VL: EIVMTQSPATLSVSPGERATLSCKASQDIGSNLNWLQQKPGQAPRRLIYAASVREPGIPARFSGSRSGSEYTLTISSLQSEDFAVYYCLQYASSPWTFGQGTKVEIKR
notes: humanized, hIgG1/kappa, parental antibody 19C16
